# Experimental data as given in paper PMC10602876, “Global profiling of ribosomal protein acetylation reveals essentiality of acetylation homeostasis in maintaining ribosome assembly and function” (Nucleic Acids Research, 2023).
# Changes are numbered by the printed parent chain. Names may count otherwise.
# B1: 50S large subunit ribosomal protein L7/L12, wild type, His-tagged (natural protein, S. Typhimurium, UniProt P0A299 1-121, looked up)
# chain: MSITKDQIIEAVSAMSVMDVVELISAMEEKFGVSAAAAVAVAAGPAEAAEEKTEFDVILKAAGANKVAVIKAVRGATGLGLKEAKDLVESAPAALKEGVSKDDAEALKKSLEEAGAEVEVK
# notes: 50S ribosomal protein L7/L12 (RplL), S. Typhimurium strain 14028S, gene amplified from the genomic DNA; The r-protein genes seem to have been cloned into pSUMO3; also called WT L7/L12; RplL; source: E. coli BL21, purified (Ni-NTA); not shown: His6, C-terminal, kept
# B2: L7/L12 K70R, His-tagged (natural protein)
# chain: B1 chain with K71R
# notes: 50S ribosomal protein L7/L12 (RplL), S. Typhimurium strain 14028S; Mimic of the non-acetylated form; same construct as m2 with the substitution; source: E. coli, purified (Ni-NTA); not shown: His6, C-terminal, kept
# B3: L7/L12 K65R, His-tagged (natural protein)
# chain: B1 chain with K66R
# notes: as for B2
# B4: L7/L12 K65Q, His-tagged (natural protein)
# chain: B1 chain with K66Q
# notes: 50S ribosomal protein L7/L12 (RplL), S. Typhimurium strain 14028S; Acetylation mimic; same construct as m2 with the substitution; source: E. coli, purified (Ni-NTA); not shown: His6, C-terminal, kept
# B5: L7/L12 K70Q, His-tagged (natural protein)
# chain: B1 chain with K71Q
# notes: as for B4
# Target: T1, Elongation factor EF-Tu, His-tagged, biotinylated (S. Typhimurium, UniProt P0A1H5 1-394, biotin (site not stated))
# T1 construct: Elongation factor Tu (tufA), S. Typhimurium strain 14028S, gene amplified from the genomic DNA; The methods sentence on vectors (pSUMO3 and pQE80, 'respectively') leaves open which vector was used; probably pQE80 with a C-terminal 6xHis; also called tufA; source: E. coli BL21, purified (Ni-NTA); biotinylated, PD-10 column; not shown: His6, C-terminal, kept
# Experiment: BLI; printed as thin-film interferometry (TFI), GatorPrime label-free analyzer; biotinylated EF-Tu loaded on the sensors; L7/L12 or mutants in solution at 12.5, 6.25, 3.125, 1.563, 0.781 and 0.391 uM in binding buffer at pH 7.4
# Conditions: both partners purified
# T1 sequence (P0A1H5 whole entry): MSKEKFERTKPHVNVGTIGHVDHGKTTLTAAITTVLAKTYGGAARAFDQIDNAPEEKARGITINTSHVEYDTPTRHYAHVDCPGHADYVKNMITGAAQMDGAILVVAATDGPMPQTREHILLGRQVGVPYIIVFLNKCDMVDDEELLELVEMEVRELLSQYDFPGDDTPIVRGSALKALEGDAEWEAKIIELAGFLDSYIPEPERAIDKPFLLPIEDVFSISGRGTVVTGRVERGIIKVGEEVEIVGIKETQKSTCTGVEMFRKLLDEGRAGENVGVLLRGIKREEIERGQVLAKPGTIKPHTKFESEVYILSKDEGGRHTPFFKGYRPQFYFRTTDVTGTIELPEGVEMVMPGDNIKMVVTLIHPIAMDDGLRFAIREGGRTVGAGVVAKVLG
row,Binder,Kd [nM]
1,B1,740
2,B2,1810
3,B3,2690
4,B4,1520
5,B5,1310
